Experimental data taken from article PMC4894451 (Scientific Reports, 2014).

Target: the molecule itself
Experiment: SEC

B1: DepH from Chromobacterium violaceum No. 968 (enzyme)
chain: not shown
- stoichiometry N: 2
